Experimental data published in paper PMC2917355, “Characterization of a Temperature-Sensitive Vertebrate Clathrin Heavy Chain Mutant as a Tool to Study Clathrin-Dependent Events In Vivo” (PLoS ONE, 2010).

B1: human clathrin heavy chain wild type hub fragment (domain or fragment, UniProt Q00610 1074-1675, looked up)
chain: KFDVNTSAVQVLIEHIGNLDRAYEFAERCNEPAVWSQLAKAQLQKGMVKEAIDSYIKADDPSSYMEVVQAANTSGNWEELVKYLQMARKKARESYVETELIFALAKTNRLAELEEFINGPNNAHIQQVGDRCYDEKMYDAAKLLYNNVSNFGRLASTLVHLGEYQAAVDGARKANSTRTWKEVCFACVDGKEFRLAQMCGLHIVVHADELEELINYYQDRGYFEELITMLEAALGLERAHMGMFTELAILYSKFKPQKMREHLELFWSRVNIPKVLRAAEQAHLWAELVFLYDKYEEYDNAIITMMNHPTDAWKEGQFKDIITKVANVELYYRAIQFYLEFKPLLLNDLLMVLSPRLDHTRAVNYFSKVKQLPLVKPYLRSVQNHNNKSVNESLNNLFITEEDYQALRTSIDAYDNFDNISLAQRLEKHELIEFRRIAAYLFKGNNRWKQSVELCKKDSLYKDAMQYASESKDTELAEELLQWFLQEEKRECFGACLFTCYDLLRPDVVLETAWRHNIMDFAMPYFIQVMKEYLTKVDKLDASESLRKEEEQATETQPIVYGQPQLMLTAGPSVAVPPQAPFGYGYTAPPYGQPQPGFGYSM
notes: Clathrin heavy chain, human, C-terminal 'hub' fragment involved in trimerization; The PCR primers encode KFDVNTS... at the start (after a BamHI site) and ...GFGYSM followed by the stop codon at the end (before a HindIII site); Cloned in pET28a between BamHI and HindIII with its own stop codon, so the His tag is probably N-terminal (surmised); also called clathrin-hub fragment; hub fragment (wild …)
B2: human clathrin heavy chain TS-hub fragment (E1584K) (domain or fragment, UniProt Q00610 1074-1675, looked up)
chain: KFDVNTSAVQVLIEHIGNLDRAYEFAERCNEPAVWSQLAKAQLQKGMVKEAIDSYIKADDPSSYMEVVQAANTSGNWEELVKYLQMARKKARESYVETELIFALAKTNRLAELEEFINGPNNAHIQQVGDRCYDEKMYDAAKLLYNNVSNFGRLASTLVHLGEYQAAVDGARKANSTRTWKEVCFACVDGKEFRLAQMCGLHIVVHADELEELINYYQDRGYFEELITMLEAALGLERAHMGMFTELAILYSKFKPQKMREHLELFWSRVNIPKVLRAAEQAHLWAELVFLYDKYEEYDNAIITMMNHPTDAWKEGQFKDIITKVANVELYYRAIQFYLEFKPLLLNDLLMVLSPRLDHTRAVNYFSKVKQLPLVKPYLRSVQNHNNKSVNESLNNLFITEEDYQALRTSIDAYDNFDNISLAQRLEKHELIEFRRIAAYLFKGNNRWKQSVELCKKDSLYKDAMQYASESKDTELAEELLQWFLQEEKRECFGACLFTCYDLLRPDVVLKTAWRHNIMDFAMPYFIQVMKEYLTKVDKLDASESLRKEEEQATETQPIVYGQPQLMLTAGPSVAVPPQAPFGYGYTAPPYGQPQPGFGYSM
notes: Clathrin heavy chain, human, C-terminal 'hub' fragment amplified from the TS-clathrin (E1584K) cDNA; The PCR primers encode KFDVNTS... at the start and ...GFGYSM followed by the stop codon at the end; Same construct as m1 but with the temperature-sensitive point mutation E1584K. pET28a, so the His tag is probably N-terminal (surmised); also called clathrin hub fragment TS-mutant; pET28a human …

Target: the molecule itself
Assay: cross-linking; 1 µM clathrin hub fragment (wild type or TS-mutant) in PBS with 10 mg/l BS3 for 5 min at temperatures from 26 to 47°C; SDS-PAGE with silver stain or anti-His-tag Western blot

Row | Protein | binding result
1 | B1 | binds
2 | B2 | binds
